We go through 1 molecule from patent US20250262210A1 (TRUSTEES OF COLUMBIA UNIVERSITY IN THE CITY OF NEW YORK, published 2025).

The target in one experiment is T1, RPAP1 (human, UniProt Q9BWH6 1-1393, limits assumed).
T1 sequence (looked up): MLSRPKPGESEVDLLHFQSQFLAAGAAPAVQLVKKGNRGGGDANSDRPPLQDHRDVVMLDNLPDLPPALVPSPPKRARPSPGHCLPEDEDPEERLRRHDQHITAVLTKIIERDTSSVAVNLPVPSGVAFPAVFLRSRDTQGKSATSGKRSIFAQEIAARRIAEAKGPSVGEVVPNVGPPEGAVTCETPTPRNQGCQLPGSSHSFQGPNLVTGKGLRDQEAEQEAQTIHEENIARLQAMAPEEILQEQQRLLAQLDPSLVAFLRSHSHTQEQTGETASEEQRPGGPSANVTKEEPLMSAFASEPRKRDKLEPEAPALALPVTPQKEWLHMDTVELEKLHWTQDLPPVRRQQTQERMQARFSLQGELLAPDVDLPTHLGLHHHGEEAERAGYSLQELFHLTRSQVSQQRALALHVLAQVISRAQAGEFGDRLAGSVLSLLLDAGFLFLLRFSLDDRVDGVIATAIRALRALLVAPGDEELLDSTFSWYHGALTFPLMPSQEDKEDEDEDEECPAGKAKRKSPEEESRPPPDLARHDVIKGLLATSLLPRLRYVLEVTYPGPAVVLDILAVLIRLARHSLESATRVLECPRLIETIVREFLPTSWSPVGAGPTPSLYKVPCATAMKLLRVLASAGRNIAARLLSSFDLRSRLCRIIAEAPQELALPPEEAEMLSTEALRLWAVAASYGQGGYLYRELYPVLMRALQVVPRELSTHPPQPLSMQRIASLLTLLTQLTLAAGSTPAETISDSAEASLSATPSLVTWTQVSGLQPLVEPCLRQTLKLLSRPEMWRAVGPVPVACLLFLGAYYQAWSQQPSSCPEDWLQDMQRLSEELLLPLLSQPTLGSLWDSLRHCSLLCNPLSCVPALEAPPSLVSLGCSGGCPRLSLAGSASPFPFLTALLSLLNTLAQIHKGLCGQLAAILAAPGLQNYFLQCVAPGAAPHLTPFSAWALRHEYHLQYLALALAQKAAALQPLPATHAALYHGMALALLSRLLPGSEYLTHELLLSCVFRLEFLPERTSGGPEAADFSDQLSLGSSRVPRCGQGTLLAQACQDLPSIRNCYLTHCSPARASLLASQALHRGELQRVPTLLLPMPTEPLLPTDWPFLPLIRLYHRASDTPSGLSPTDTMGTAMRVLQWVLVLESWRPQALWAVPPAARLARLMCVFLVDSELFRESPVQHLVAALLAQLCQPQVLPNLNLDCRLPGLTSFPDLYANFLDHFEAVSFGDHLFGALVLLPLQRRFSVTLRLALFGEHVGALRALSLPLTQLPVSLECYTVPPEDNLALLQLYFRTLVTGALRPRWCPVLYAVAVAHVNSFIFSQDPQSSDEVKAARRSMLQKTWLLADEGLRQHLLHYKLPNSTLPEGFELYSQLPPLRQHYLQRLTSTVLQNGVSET
Briefly: IP/MS, LZTR1 R810W-FLAG, U87. A digest of the protocol:
(§1)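 Extracted peptides in 3% acetonitrile/0.1% formic acid ran on a 50 cm C18 column into an Orbitrap Fusion, with MaxQuant identification and spectral counting.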

Another experiment concerns the target CDC42BPA (human, UniProt Q5VT25 1-1732, limits assumed). Briefly: IP/MS, LZTR1 R810W-FLAG, U87. A digest of the protocol:
as §1

CDC42BPA, sequence (Q5VT25 whole entry): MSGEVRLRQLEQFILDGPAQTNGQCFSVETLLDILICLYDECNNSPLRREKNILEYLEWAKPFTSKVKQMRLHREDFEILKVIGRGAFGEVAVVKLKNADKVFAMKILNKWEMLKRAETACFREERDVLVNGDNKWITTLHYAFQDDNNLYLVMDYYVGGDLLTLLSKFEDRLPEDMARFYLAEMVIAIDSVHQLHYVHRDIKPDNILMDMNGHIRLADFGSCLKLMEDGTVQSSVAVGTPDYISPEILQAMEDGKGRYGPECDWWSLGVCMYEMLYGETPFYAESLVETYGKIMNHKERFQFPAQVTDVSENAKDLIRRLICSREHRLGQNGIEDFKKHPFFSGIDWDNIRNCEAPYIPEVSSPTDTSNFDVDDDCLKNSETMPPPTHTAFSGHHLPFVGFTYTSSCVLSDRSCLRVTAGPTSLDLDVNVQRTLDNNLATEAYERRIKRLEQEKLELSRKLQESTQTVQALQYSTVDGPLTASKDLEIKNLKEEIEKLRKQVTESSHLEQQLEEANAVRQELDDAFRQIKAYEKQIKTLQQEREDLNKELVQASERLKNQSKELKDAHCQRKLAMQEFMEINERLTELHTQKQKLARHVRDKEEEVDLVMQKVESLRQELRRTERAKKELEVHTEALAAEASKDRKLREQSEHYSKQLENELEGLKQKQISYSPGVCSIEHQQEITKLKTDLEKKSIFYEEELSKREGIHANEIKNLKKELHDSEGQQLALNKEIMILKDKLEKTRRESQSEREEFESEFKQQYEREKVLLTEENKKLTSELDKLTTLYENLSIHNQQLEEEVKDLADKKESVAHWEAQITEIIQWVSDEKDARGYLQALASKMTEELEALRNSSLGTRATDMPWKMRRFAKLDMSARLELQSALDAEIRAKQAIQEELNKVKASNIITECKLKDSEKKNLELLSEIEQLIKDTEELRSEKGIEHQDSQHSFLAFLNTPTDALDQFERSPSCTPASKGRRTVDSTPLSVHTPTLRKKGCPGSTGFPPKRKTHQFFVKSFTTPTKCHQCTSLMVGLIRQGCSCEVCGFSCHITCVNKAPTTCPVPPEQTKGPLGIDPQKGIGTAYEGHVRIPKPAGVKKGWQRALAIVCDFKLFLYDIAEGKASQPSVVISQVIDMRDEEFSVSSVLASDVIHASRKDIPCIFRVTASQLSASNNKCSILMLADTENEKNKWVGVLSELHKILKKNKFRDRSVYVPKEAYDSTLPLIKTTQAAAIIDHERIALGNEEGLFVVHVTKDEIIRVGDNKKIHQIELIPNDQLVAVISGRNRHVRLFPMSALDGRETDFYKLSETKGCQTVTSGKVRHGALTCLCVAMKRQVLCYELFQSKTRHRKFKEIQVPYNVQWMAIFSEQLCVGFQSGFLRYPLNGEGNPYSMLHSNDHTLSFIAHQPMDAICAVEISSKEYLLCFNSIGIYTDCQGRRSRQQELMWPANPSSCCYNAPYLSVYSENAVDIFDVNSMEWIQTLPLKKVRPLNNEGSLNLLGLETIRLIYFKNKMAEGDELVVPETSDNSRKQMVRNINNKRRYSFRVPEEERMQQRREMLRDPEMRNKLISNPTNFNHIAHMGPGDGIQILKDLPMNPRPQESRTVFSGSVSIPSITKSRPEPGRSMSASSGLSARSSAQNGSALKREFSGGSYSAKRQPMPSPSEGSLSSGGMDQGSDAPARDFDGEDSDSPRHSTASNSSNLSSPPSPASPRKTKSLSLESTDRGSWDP

B1: LZTR1 R810W-FLAG (other, human, UniProt Q8N653 1-840, looked up)
chain: MAGPGSTGGQIGAAALAGGARSKVAPSVDFDHSCSDSVEYLTLNFGPFETVHRWRRLPPCDEFVGARRSKHTVVAYKDAIYVFGGDNGKTMLNDLLRFDVKDCSWCRAFTTGTPPAPRYHHSAVVYGSSMFVFGGYTGDIYSNSNLKNKNDLFEYKFATGQWTEWKIEGRLPVARSAHGATVYSDKLWIFAGYDGNARLNDMWTIGLQDRELTCWEEVAQSGEIPPSCCNFPVAVCRDKMFVFSGQSGAKITNNLFQFEFKDKTWTRIPTEHLLRGSPPPPQRRYGHTMVAFDRHLYVFGGAADNTLPNELHCYDVDFQTWEVVQPSSDSEVGGAEVPERACASEEVPTLTYEERVGFKKSRDVFGLDFGTTSAKQPTQPASELPSGRLFHAAAVISDAMYIFGGTVDNNIRSGEMYRFQFSCYPKCTLHEDYGRLWESRQFCDVEFVLGEKEECVQGHVAIVTARSRWLRRKITQARERLAQKLEQEAAPVPREAPGVAAGGARPPLLHVAIREAEARPFEVLMQFLYTDKIKYPRKGHVEDVLLIMDVYKLALSFQLCRLEQLCRQYIEASVDLQNVLVVCESAARLQLSQLKEHCLNFVVKESHFNQVIMMKEFERLSSPLIVEIVRRKQQPPPRTPLDQPVDIGTSLIQDMKAYLEGAGAEFCDITLLLDGHPRPAHKAILAARSSYFEAMFRSFMPEDGQVNISIGEMVPSRQAFESMLRYIYYGEVNMPPEDSLYLFAAPYYYGFYNNRLQAYCKQNLEMNVTVQNVLQILEAADKTQALDMKRHCLHIIVHQFTKVSKLPTLWSLSQQLLLDIIDSLASHISDKQCAELGADI
notes: Stably expressed in U87 cells by lentivirus; also called LZTR1-FLAG-R810W; LZTR1 RW; not shown: FLAG tag
Regarding B1, the binding result in the experiment with RPAP1 and with CDC42BPA was “binds” in each case.
